Experimental data from publication doi:10.1101/763847.

Molecular target: single-bond CDH23 fusion protein (EC1-5/EC3-5 Fc heterodimer with one EC1-2 binding domain) (mouse)
Assay: single-molecule dynamic force spectroscopy

How did the force sensitivity fβ (force that accelerates the off-rate e-fold) turn out when “single-bond PCDH15 fusion protein (EC1-5/EC3-5 Fc heterodimer with one EC1-2 binding domain) (Fc fusion)” was run?
The force sensitivity fβ (force that accelerates the off-rate e-fold) was 14.3 pN.

And the koff?
The koff was 0.62 s⁻¹.

What about the mean lifetime (1/koff) at zero force of the same substance?
Its mean lifetime (1/koff) at zero force is 1.6 s.

What about the mean zero-force lifetime in 50 uM Ca2+ of the same substance?
The mean zero-force lifetime in 50 uM Ca2+ was 0.87 s.

And the single-bond lifetime at a resting tension of 10 pN (calculated from the fit)?
Its single-bond lifetime at a resting tension of 10 pN (calculated from the fit) is 1 s.
